From patent US6017533
No end group written: not given here.

Experiments:
[1] = target: PACAP receptor in rat brain crude membrane (rat); assay: displacement of [^125 I]MAX from rat brain crude membranes
[2] = target: PACAP receptor in rat brain crude membrane (rat); assay: displacement of [^125 I]PACAP 27 from rat brain crude membranes
[3] = target: PACAP receptor in rat brain crude membrane (rat); assay: displacement of [^125 I]MAX and [^125 I]PACAP 27 from rat brain crude membranes; reference M65

Molecule | IC50 [1] [nM] | IC50 [2] [nM] | fold of IC50 against M65 [3] [times]
M65 (SEQ ID NO: 3) (peptide) | 2.96 | 5.96 | 
FTDSYSRYRKQMAVKKYLAAVLGKRYKQRVKNK-NH2 [PACAP 6-38 (SEQ ID NO: 6-NH2)] | 8.35 | 39.1 | 6 to 10
FTDSYSRYRKQMAVKKYLAAVL-NH2 [PACAP 6-27 (SEQ ID NO: 7-NH2)] | 235 | 1030 | 

Results, then the molecule that gave them:

IC50 [1] [nM] | IC50 [2] [nM] | fold of IC50 against M65 [3] [times] | Molecule
1.91 | 4.45 |  | HSDGIFTDSYSRYRKQMAVKKYLAAVLGKRYKQRVKNK-NH2 (ligand) [PACAP 38 (SEQ ID NO: 4-NH2)]
2.16 | 9.55 |  | HSDGIFTDSYSRYRKQMAVKKYLAAVL-NH2 (ligand) [PACAP 27 (SEQ ID NO: 5-NH2)]
